# Test results from patent publication US20250082769A1, “CELLULAR UPTAKE PEPTIDE-THERAPEUTIC PAYLOAD COMPOSITIONS AND METHODS OF USE” (Nighthawk Biosciences, Inc., priority 2022, published 2025).
# Like-named read-outs stand apart in the source and are kept apart here. Non-standard residues stand in square brackets, D forms with d. Residues, ends and D or L forms follow the SMILES beside them. *: point of attachment. Dolaproine = CO[C@@H]([C@@H]1CCCN1)[C@@H](C)C(=O)O; Dil = CC[C@H](C)[C@H](NC)[C@@H](CC(=O)O)OC; X1 = C[C@@H](N*)[C@@H](O)c1ccccc1; NMeV = CN[C@H](C(=O)O)C(C)C
# How the values were obtained:
# CHLA06 cells [1] = experiment: Dose response / cell viability in CHLA06 cells; assay type: cell-based
# Description: (§1) Biological activity of the peptides was determined using various assays. To determine proliferative activity, cells were plated at 5×10^3 cells per well in a 96-well microtiter plate. Samples and controls were added and the plates incubated for 24, 48 and 72 hours at 37° C. Viability was determined by adding WST-1 and reading at […] over 1-4 hours. Alternatively, viability was determined using a kit such as the EZViable calcein AM cell viability assay (BioVision) or the Live/Dead Cell imaging kit (ThermoFisher). Induction of cell events such as apoptosis was determined using reagents such as Cell Event Caspase 3/7 reagent (ThermoFisher).
# microtubules = experiment: ViaFluor 647 live cell microtubule stain (FIG. 6); assay type: cell-based; settings: ViaFluor 647 stain, 60 minutes at 37° C.
# Description: Cells were stained with ViaFluor 647 live cell microtubule stain (Biotium). Cells were treated as in FIG. 3 and stain with ViaFluor for 60 minutes at 37° C.
# A431 cells = experiment: Dose response / cell viability in A431 cells; assay type: cell-based, human
# Description: as §1
# (§2) Cells were plated at 5000 cells/well in 100 ul D10 on day 0.100 ul of PDCs were added and titrated 1:1 in D10 (starting concentration=500 nM). WST-1 was added at 72 hours and the plates read over 5 hours at […] in a Promega GloMax.
# A pocket biologic (peptide or antibody) having an internalization portion, a linker, and a localization signal was developed to deliver a drug or biological therapeutic into the cell. […] 429-MMAE-1 and 429-NLS-Panobinostat constructs were developed for in vivo studies. G292 cell lines and A431 cell lines were used in the in vivo studies. G292 cells were derived from a primary osteosarcoma of a person. […] A431 cells were established from an epidermoid carcinoma in the skin (epidermis) of a patient. Epidermal growth factor (EGF) stimulation of A431 cells induces rapid tyrosine phosphorylation of intracellular signaling proteins which control cellular processes such as growth, proliferation and apoptosis. […] 429-MMAE affected cell viability in G292 cell lines (FIG. 16A-FIG. 17). 429-MMAE at 50 nm, 125 nm, 250 nm, 500 nm concentrations and OV-MMAE conjugates at 50 nm, 125 nm, 250 nm, 500 nm concentrations were compared to DMSO and MMAE at 50 nm in G292 cells.
# [2] = test system: cancer cell lines of different lineages; experiment: Internalization of OV-8 in cell lines; assay type: cell-based; settings: FIG. 2
# CHLA06 cells [3] = experiment: Confocal microscopy of 429-SMARCB1 in CHLA06 cells; assay type: cell-based; settings: confocal fluorescent microscopy
# CHLA06 cells [4] = experiment: Caspase assay (apoptosis) in CHLA06 cells; assay type: cell-based; settings: SMARCB1 conjugate and tazemetostat treatments
# Description: as §1
# 429-MMAE was also compared with 429-SM in various cell lines. 429-SM represents 429-Smarc-MMAE and consists of 429-linker-NLS-SMARCB1 mimic to which 1 or 2 MMAE molecules are conjugated through the cysteines. CHLA06 cells were plated at 10,000 cells/well in B27-5 overnight. Samples were added and incubated for 48 hours at 37° C. Caspase 3/7 reagent was added and plates were read after 30 minutes at room temperature. […] Induction of apoptosis is directly correlated with drug concentration (i.e., higher the concentration of drug, the higher the apoptotic effect). […] 429-SM was also effective in A431 and HCT116 cells (FIG. 42C-42D).
# HCT116 cells = experiment: Dose response / cell viability in HCT116 cells; assay type: cell-based, human; settings: HCT116 Myc-reporter cells
# Description: as §1, §2
# Myc transcription = Myc transcription in HCT116 Myc-reporter cells; assay type: cell-based, human; settings: for inhibition of Myc transcription: dose series
# ATRT cell lines = experiment: Apoptosis in ATRT cell lines, combination with tazemetostat; assay type: cell-based
# CHLA02 cells = experiment: Caspase activity / apoptosis in CHLA02 cells; assay type: cell-based; settings: CHL02 cells; SMARCB1 Mimic (F) and tazemetostat treatments
# Description: as §1
molecule,measurement,setting,value
C[C@]1(O)C[C@@H](c2nc(-c3ccc4ccc(-c5ccccc5)nc4c3)c3c(N)nccn32)C1 [Linsitinib],effect on CHLA06 cells (dose response),CHLA06 cells [1]; FIG. 38A,no effects
"CC[C@H](C)[C@@H]([C@@H](CC(=O)N1CCC[C@H]1[C@H](OC)[C@@H](C)C(=O)N[C@H](C)[C@@H](O)c1ccccc1)OC)N(C)C(=O)[C@@H](NC(=O)[C@@H](NC)C(C)C)C(C)C [MMAE, monomethyl auristatin E, reference compound] (H-[NMeV]V[Dil][Dolaproine]-X1)",disruption of microtubules,microtubules,disrupt microtubules
same,IC50,"A431 cells; A431 cells, MMAE at 1:3 dilutions, FIG. 20A, read-out: IC50 value (four-parameter non-linear regression)",0.0712 nM
Nc1ncnc2c1c(-c1cccc(OCc3ccccc3)c1)cn2C1CC(CN2CCCC2)C1 (centres unmarked) [NVP-ADW742],effect on CHLA06 cells (dose response),CHLA06 cells [1]; FIG. 38A,no effects
"COc1cc([C@@H]2c3cc4c(cc3[C@H](O)[C@H]3COC(=O)[C@@H]23)OCO4)cc(OC)c1OC [PPP, Picropodophyllin]",effect on CHLA06 cells (dose response),CHLA06 cells [1]; FIG. 38A,active
same,effectiveness compared to 429-MMAE in terms of IC50,CHLA06 cells [1]; FIG. 38A,less effective
"Cc1[nH]c2ccccc2c1CCNCc1ccc(/C=C/C(=O)NO)cc1 [Panobinostat, reference compound]",IC50,"A431 cells; Homo sapiens, A-431, A431 cells, FIG. 20B, FIG. 24A, read-out: IC50 value",108 nM
same,IC50,"A431 cells; Homo sapiens, A-431, printed as A431 treated with Panobinostat, in the sentence on CHLA06 cells, FIG. 24B, read-out: IC50",> 500 nM
FSFGNSSLRKLPGVVRRRRCARGVWR [Skwx-OV-8],internalization into cancer cell lines,[2],internalize
429-SMARCB1: 429 construct delivering SmarcB1-myc binding sequence to nucleus (429 conjugate) DFYGCLLDLSLGVPSLGWRRRCITAWLPSSIPKKKRKVDGQKLRDAFTWNMNEKLMTPEMFSEILCDDLD,internalization,CHLA06 cells [3]; CHLA06 cells,internalized
same,co-localization with histones,CHLA06 cells [3],co-localizes with histones
same,caspase activity,CHLA06 cells [4],increased caspase activity
same,HCT116 cell viability compared to a control,HCT116 cells,affects HCT116 cell viability
same,cell viability,CHLA06 cells [1]; 429-SMARCB1 and tazemetostat treatments,reduced cell viability
same,Myc transcription compared to the control,Myc transcription; 5 nM,significantly affects Myc transcription
same,Myc transcription compared to the control,Myc transcription; 50 nM,significantly affects Myc transcription
same,inhibition of Myc transcription,Myc transcription,inhibits Myc transcription
same,apoptotic effect in combination with tazemetostat,ATRT cell lines,synergistic apoptotic effect
DFYGCLLDLSLGVPSLGWRRRCITAWLPSSIPKKKRKVDGQKLRDAFTWNMNEKLMTPEMFSEILCDDLD (not fully specified) DFYGCLLDLSLGVPSLGWRRRCITAWLPSSIPKKKRKVDGQKLRDAFTWNMNEKLMTPEMFSEILCDDLD,caspase activity,CHLA06 cells [4],significantly increased caspase activity
same,HCT116 cell viability compared to a control,HCT116 cells,inhibited
same,CHLA06 cell viability compared to 429 control,CHLA06 cells [1]; 50 ug,significantly affected CHLA06 cell viability
same,inhibition of Myc transcription,Myc transcription,inhibited
same,caspase activity,CHLA02 cells,significantly increased caspase activity
